For one molecule, binding result and Kd results are on record in paper PMC9980635 (mAbs, 2023).

In assay [1] the target is cynoLAMP1 presented on the surface of engineered cell lines (Macaca fascicularis, UniProt A0A2K5UUW0). Nature of the assay: flow cytometry on cells. On the technique in general: Flow cytometry measures light scatter and fluorescence of single cells or particles in a stream.
Assay [2] concerns the target human LAMP-1 extracellular domain (Homo sapiens, UniProt P11279). In words: BLI.
Assay [3] has as its target cynomolgus LAMP-1 extracellular domain (Macaca fascicularis, UniProt A0A2K5UUW0). Nature of the assay: BLI. On the technique in general: BLI is a label-free optical method that tracks binding on a fibre tip over time.
Assay [4] concerns the target murine LAMP-1 extracellular domain (Mus musculus, UniProt P11438). In words: BLI.

Chain of human LAMP-1 extracellular domain (P11279 29-382): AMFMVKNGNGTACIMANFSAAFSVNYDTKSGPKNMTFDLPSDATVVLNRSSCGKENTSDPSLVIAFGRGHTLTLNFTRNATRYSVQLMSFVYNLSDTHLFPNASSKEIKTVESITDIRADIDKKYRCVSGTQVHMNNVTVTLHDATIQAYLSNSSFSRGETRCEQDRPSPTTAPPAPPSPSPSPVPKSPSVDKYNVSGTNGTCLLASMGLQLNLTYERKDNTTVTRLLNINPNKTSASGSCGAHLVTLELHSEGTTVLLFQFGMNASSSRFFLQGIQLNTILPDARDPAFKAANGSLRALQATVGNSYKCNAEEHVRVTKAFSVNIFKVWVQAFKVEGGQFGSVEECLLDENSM
Chain of murine LAMP-1 extracellular domain (P11438 25-370): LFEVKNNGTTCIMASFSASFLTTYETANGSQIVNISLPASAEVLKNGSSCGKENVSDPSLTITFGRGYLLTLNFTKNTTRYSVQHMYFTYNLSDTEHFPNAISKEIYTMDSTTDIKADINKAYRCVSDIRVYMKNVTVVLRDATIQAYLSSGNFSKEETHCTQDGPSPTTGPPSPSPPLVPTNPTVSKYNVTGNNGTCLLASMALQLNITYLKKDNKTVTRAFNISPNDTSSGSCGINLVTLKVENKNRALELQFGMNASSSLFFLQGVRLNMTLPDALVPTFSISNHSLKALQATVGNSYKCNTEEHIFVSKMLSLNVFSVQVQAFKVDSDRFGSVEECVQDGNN

B1: mAb B (antibody, V domains shown)
VH: QVQLVQSGAEVKKPGSSVKVSCKASGYIFTNYNIHWVKKSPGQGLEWIGAIYPGNGDAPYSQKFQGKATLTADTSTSTTYMELSSLRSEDTAVYYCVRANWDVAFAYWGQGTLVTVSS
VL: DIQMTQSPSSLSASVGDRVTITCKASQDIDRYMAWYQDKPGKAPRLLIHDTSTLQSGVPSRFSGSGSGRDYTLTISNLEPEDFATYYCLQYDNLWTFGGGTKVEIK
As usually defined, the Kd is the constant that tells how readily two partners part at equilibrium. A high value points to a looser complex. Turning to B1, the results for the binding result in assay [1], in assay [3] and in assay [4] were “no binding”, “no binding (tested: 200 nM)” and “no binding (tested: 200 nM)”, respectively. Also, binding in assay [2] was put at a Kd of 12 nM.
